From the DeepSol protein solubility set

Experiment: soluble on expression in E. coli; label from the status in PepcDB or PDB records
With “MHERLNFPKVELHLHLDGAVRFDTLIDLSQQKGIPLAGAKTVEELKKVLVTHEPANLSKVLEAFEIFLPVIRGDLAAIERVAYELCEDQHNNGVVYFEGRYSPHLLLCNDYPEVTAAHVVAAVKKGFDRGEKQFGIKARSILCCIRGLDKKFPQLILDLATDLKQLGVVAIDVAGSAHGADEQYEPEVVAAFQEAHKRGIHRTVHAGESGGPKEVIKAIEDMYAERIGHGYRVMRDEEMYLEHFVNSKNVHLEACPYSSVMTGAVPLDWKNHPIARWAKDDVNFSVSRDDPTCFDNSMLSELTLVHKQIGLDVHQLWKAQLNAARSCFLPEDEKAELVKRVEAGEPPRP” the “soluble on expression in E. coli” value was “not soluble”. In the case of “MGSDKIHHHHHHMSELPNSHATTLLAAPDTEIDVRETFGIDIDMKVPAFSRADERVPDRDDTYVFDPDTTLAILAGFAYNRRVMVQGYHGTGKSTHIEQVAARLNWPCIRINLDAHISRIDLVGRDAIVLRDGLQVTEFREGLLPWALQTPTALVFDEYDAGRPDVMFVIQRVLETEGKLTLLDQNRVIRPNKFFRLFATANTVGLGDTSGLYHGTQAINQGQMDRWNLVVALNYLPEATEVEIVTKKVPDLDPKIVTDMVRVANLTRQGFINGDISTVMSPRTVISWAQNSQIFNDVGFAFRLSFLNKCDETERVLVAEYYQRVFGKDLPESVAHRG”, the “soluble on expression in E. coli” value is reported as “not soluble”. With “MVTSTRARFGQFVHRRRRLLNLTQDEVTAAGGPSDAAQTRAENGTGPDPSIETLRKLDVALRWAPGSAARTLDGGHPTPLEALDGEDRSPAARPLTLGPSEIPLDLDTIIEILGPHTQITKLSAAHPEVPGLAEAAGELSRVVSKITGAYVTRLLEVNGGPTGPRQPLVEFAFGHLLEEPTTVTDPRELEEARYRRFLYGRGEDLDAATRERFWRRWEDAVKLVATEDPERSGDAEVNA” the “soluble on expression in E. coli” value was “not soluble”. In the case of “MGSDKIHHHHHHMIRGEMTMPSLTFQEIDNHLMNDNKPSNFIIELNKAGIIETEYPFTLLGALKDTPQSPKHHPEGSVWNHTLMVLDNAAERKHLSQNPQVLMWAALLHDLGKAPTTRVRKGRITSYDHDAVGEKLAGQFLRELTRDERFIHQVAKMVRWHMQILFVVKGLPFANVKKMAAEVSIEEIALLGFCDRLGRGEMTPQKKQEEEQTIEKFLVRCMEILQG”, the “soluble on expression in E. coli” value is reported as “not soluble”. With “MSKVNQQDIDKLIELVGGRGNIATVSHCITRLRFVLNDPAIARPKEIEQLRMVKGCFTNAGQFQVVIGTEVGDYYKALLATTGQTSADKEQVKQA” the “soluble on expression in E. coli” value was “not soluble”. In the case of “MNKVAIAVAAVVAGSSALLNSAQAEMYIGGKVGMTTLDDACYLNSPCDDEAFGAGLHIGYDFTDFIGLEYGVDFLGDYKANFKSGASTVDTIDGNLTALTLAPKFNWHLNDSWNLFAKIGGAYMMSEDEKDFVATGSLGAEYSIDRNWSVRAEYQRYQDMSDDVWDDMDANFFGIGVNYKFAAAPVVAAVVTEEVVEPDPEPVLMSKVH”, the “soluble on expression in E. coli” value is reported as “not soluble”. With “MLELVQKGITPEDAITAGKKARKYFELTYYVMPGLGGRERSEQHAVNTARVINKAQPTFVRLRTLTVIEGTPIEKLVGKEITLLGPVEQLEEVRRLVEEIKVETLLLSDHVSNYLFTRSGPIFFGVSGKLPDEKEQMLEQVDDAIKTVKLLEESGERVFNSNDMYRMGLIGL” the “soluble on expression in E. coli” value was “not soluble”. In the case of “ARSAYSYIREAWKRPKEGQIAELMWHRMQEWRNEPAVVRIERPTRLDRARSLGYKAKQGIIVVRVAIRKGSSRRTRFNKGRRSKRMMVNRITRKKNIQRIAEERANRKFPNLRVLNSYSVGEDGRHKWHEVILIDPDHPAIKSDDQLSWISRTRHRLRTFRGLTSAGRRCRGLRGQGKGSEKVRPSLRVNGAKA”, the “soluble on expression in E. coli” value is reported as “soluble”. In the case of “MSLAYQSEYALENEMMNQLEQLGYERVTIRDNKQLLDNFRTILNERHADKLEGNPLTDKEFQRLLTMIDGKSIFESARILRDKLPLRRDDESEIYLSFLDTKSWCKNKFQVTNQVSVEDTYKARYDVTILINGLPLVQVELKRRGIDINEAFNQVKRYRKQNYTGLFRYIQMFIISNGVETRYFSNNDSELLKSHMFYWSDKQNNRINTLQSFAESFMRPCQLAKMISEGHHHHHH”, the “soluble on expression in E. coli” value is reported as “soluble”. With “MSLADLQKNFQTSFRDAMASCAAGVHVITTDGAAGRYGITMTAVAPVTDEPPTVMLCINRSARIIPILSENGSLCINTLADEHQDVAEHFAGLTGLSPEERFAYHIWHRGKTGQLEIEGALAHLHGHIVGKHEIGTHFVFYVRLDEIKNCGCKRPALLYFRRQFRFLDEGGSHHHHHH” the “soluble on expression in E. coli” value was “soluble”. In the case of “MGSDKIHHHHHHGSSESAEYQQTNHYNTPKGFMNDIQTIFKGSDGYYHMYYLLNSNYKLANDGTEWYHVRTKDWEHFENLGVAIPKFVNGWSAVATGSIFQNSNQFFKDLPTSAIVAYFTSYTDTGQHQYVAYSLDNGSSYQPYNNGKPVMISQTKEQNARDPYIWYDSNSKRLMMYLAEGDKIGIYASSDGKNWAYQGATVLNQYTLGGKDLGLVECPNLKTFYDSATNTTKHVLFFGANGYQYGSTTGTYYMIGHLDTQGNFVPEQNAERLDQGSDYYGANFYQESDCVVKSIAWMGNWDYLQGQILDDQGQESKHLGSVSSARDITMVKRDDKYVLESYLKNNNSRTNTVSYQSNADTAKLADDGYHKTLLSVSRWHSQELSLKFQANAATLNGHIRLIFKQADAQVSLDYNTDNGYYEVKRTSSKIIGSQKVNYERSYVVDSHWNGQKELNIYLVADKSSLEFALPNGQTYSMVKLSTASDMDIVIETSGSNRLQADLANLET”, the “soluble on expression in E. coli” value is reported as “not soluble”. In the case of “MSGSNTAISRRRLLQGAGAMWLLSVSQVSLAAVSQVVAVRVWPASSYTRVTVESNRQLKYKQFALSNPERVVVDIEDVNLNSVLKGMAAQIRADDPFIKSARVGQFDPQTVRMVFELKQNVKPQLFALAPVAGFKERLVMDLYPANAQDMQDPLLALLEDYNKGDLEKQVPPAQSGPQPGKAGRDRPIVIMLDPGHGGEDSGAVGKYKTREKDVVLQIARRLRSLIEKEGNMKVYMTRNEDIFIPLQVRVAKAQKQRADLFVSIHADAFTSRQPSGSSVFALSTKGATSTAAKYLAQTQNASDLIGGVSKSGDRYVDHTMFDMVQSLTIADSLKFGKAVLNKLGKINKLHKNQVEQAGFAVLKAPDIPSILVETAFISNVEEERKLKTATFQQEVAESILAGIKAYFADGATLARRG”, the “soluble on expression in E. coli” value is reported as “soluble”. In the case of “MGSDKIHHHHHHMLNTIGERQKQLLKLLRGSRPGLSVDELSKGLEITRNAVRQHLSSLEGAGLVTAGNTRPSGGGRPQQLYVLTELGKESFPRQYSWLAQLVLASVRREEGVENMGKRLSEIGAGIAEQIRGQYPDLNTKEEKIDKLTEVMDQLGYNAKSATLPNGEKVIEADNCVFHQMAAKDMEICHLDRGLMETFTDSKVEQHECMARGGELCRFRFVSKKE”, the “soluble on expression in E. coli” value is reported as “not soluble”. With “MSLARQVTAFNTGWQFKKGPFATDPMRAASQWDGKWETVEIPHTWNAMDMQVQSGSFYEGAGYYRKTQFFPHDLEGKRVFLRFEGVGACAEVYVNGKLAGTHKGGYSAFACEIGTALKLGAENEIIVKADNKARPDVIPVNQNLFGVYGGIYRPVWLIVTEQNNITVTDCASPGVYITQKDVSKKSADITVKVKLDNAGLQPAAVTLENTIYTQEGQKVGTHSRSFDLSPQGTQTYLSTFKLKNPHLWQGRKDPYLYKVVCRLMADGKVIDEVVQPLGVRKYEIVAGKGFFLNGEKYSMYGVTRHQDWWGLGSALKNEHHDFDLAAIMDVGATTVRFAHYQQSDYLYSRCDTLGLIIWAEIPCVNRVTGYETENAQSQLRELIRQSFNHPSIYVWGLHNEVYQPHEYTAALTRSLHDLAKTEDPDRYTVSVNGYGHMDHPVNLNADIQGMNRYFGWYEKKIQDIKPWVEQLEKDYPYQKLMLTEYGADANLAHQTEYLGDALNWGKPFYPETFQTKTHEYQWSIIKDHPYIIASYLWNMFDFAVPMWTRGGVPARNMKGLITFDRKTKKDSYFWYKANWSEEPVLYLTQRRNADREKRTTAVTVYSNIGTPKVYLNGQELSGIRNGYTDVHYVFDNVSLADGKNILKAVVSTKGKEYTDEIEWNYSGEKNREIDSYENKNEHSGEGHHHHHH” the “soluble on expression in E. coli” value was “soluble”. In the case of “SREIDYTAYPWFAGNMERQQTDNLLKSHASGTYLIRERPAEAERFAISIKFNDEVKHIKVVEKDNWIHITEAKKFDSLLELVEYYQCHSLKESFKQLDTTLKYPY”, the “soluble on expression in E. coli” value is reported as “soluble”. In the case of “MAHHHHHHMSAVLMAAVKVWTGNVRACLRVHHDTRTFCKAMKMRNLPVVLLDGVRFASLESVQHGKVRTRKDVVSGDLCVAIRKLNGVELMDDVQPRDPAIFLRDEKSKTFSAEEAREIYSIIVKSLSHILVVDSEVKTVECGIKRIMGNSTATEPETPKLTDLIRWLKSNMSTHDVLPIFSTQDRTVTFFVNQKIFRRIGHSDNGRRKK”, the “soluble on expression in E. coli” value is reported as “not soluble”. For “MGSDKIHHHHHHVSQLTPWQHYQQDLTRDDFSHDAAQEQAVKSLQRVYDELIVAAKPASSVSKLFSAIGIKSTPTPVKGLYLWGGVGRGKTYLMDTFFDALPTDRKLRAHFHRFMHQIHNDLGELKGVQDPLLTIAKKMASQYQIICFDEFFVSDITDAMLLGTLFQALFKEGVALVATSNIIPDELYKNGLQRVRFLPAIALINQHCEILNVDSGIDYRLRTLEQAEIYHYPLDEQADINLLHYFDQLAPESEKLTAPIDVDGRAIRIRQQSQGVLLINFRDLCDGPRSQRDYMEMACLYHTVLVSGLEQMGSQQTGDDIARRFLAMVDEFYERNVKLIISAQVELEHIYTDGQLNFEFRRCRSRLIEMQSREYLALEHLP”, the “soluble on expression in E. coli” value was “not soluble”. For “MATPDVSVHMEEVVVVTTPDTAVDGSGVEGVKTVLVTTNLAPHGGDLTEDNMETENAAAAAAAAFTASSQLKEAVLVKMAEEGENLEAEIVYPITCGDSRANLIWRKFVCPGINVKCVQYDEHVISPKEFVHLAGKSTLKDWKRAIRMNGIMLRKIMDSGELDFYQHDKVCSNTCRSTKIDLSGARVSLSSPTSAEYIPLTPAAADVNGSPATITIETCEDPGDWTAAIGDDTFTFWRGLKDAGLLDEVIQEFHQELVETMRGLQQRVQDPPLQLRDAVLLNNIVQNFGMLDLVKKVLASHKCQMDRSREQYARDLAALEQQCDEHRRRAKELKHKSQHLSNVLMTLTPVSLPPPVKRPRLARATSGPAAMASQVLTQSAQLALGPGVPVPQLTSVPLGKVVSTLPSTVLGKGSLQAPPASSPASPLLGGYTVLASSGSTYPSTVEIHPDASSLTVLSTAAVQDGSTVFKVVSPLQLLTLPGLGPTLQNVAQASPGSSTIVTVPAGAAPGPEEHTATIEVAAMAEDHERK”, the “soluble on expression in E. coli” value was “not soluble”. In the case of “MSQSNLIQTDRFVLSETERSSIEHEMHHYEDPRAASIEALKIVQKQRGWVPDGAIPAIGEVLGIPASDVEGVATFYSQIFRQPVGRHIIRVCDSMVCYIGGHESVVGEIQKQLGIGLGQTTADGRFTLLPVCCLGNCDKAPALMIDDDTHGDVRPDGVAKLLEAYV”, the “soluble on expression in E. coli” value is reported as “not soluble”.
